Consider 49 molecules from US20200087363A1 (IMMATICS BIOTECHNOLOGIES, published 2020).

For the test, the target named is T1, HLA-B*44:05 (human).
T1 construct: also called peptide-receptive MHC class I molecule
Briefly: UV peptide exchange, anti-b2m ELISA. The method, then: Only peptide candidates that can effectively bind and stabilize the peptide-receptive MHC molecules prevent dissociation of the MHC complexes. To determine the yield of the exchange reaction, an ELISA was performed based on the detection of the light chain (β2m) of stabilized MHC complexes. The assay was performed as generally described in Rodenko et al. (Rodenko et al., 2006)
96 well MAXISorp plates (NUNC) were coated over night with 2 ug/ml streptavidin in PBS at room temperature, washed 4× and blocked for 1 h at 37° C. in 2% BSA containing blocking buffer. […] Peptide-MHC monomers of the UV-exchange reaction were diluted 100-fold in blocking buffer. Samples were incubated for 1 h at 37° C., washed four times, incubated with 2 ug/ml HRP conjugated anti-β2m for 1 h at 37° C., washed again and detected with TMB solution that is stopped with […]. Absorption was measured at 450 nm.
On the technique in general: ELISA stands for enzyme-linked immunosorbent assay.
YENILNAI gave a peptide exchange yield of 20 to 50%.

As for RELIKAIGL, the peptide exchange yield fell in the range of 50 to 75%.

In the case of LEDQLKPMLEW, the peptide exchange yield is 50 to 75%.

Turning to QEVAGYVLI, the peptide exchange yield is 50 to 75%.

On to EDNLIHKF, for which the peptide exchange yield was in the range of 20 to 50%.

CDAQIQYSY showed a peptide exchange yield of 50 to 75%.

With VEQINISQDW, the peptide exchange yield is > 75%.

For KESQLPTVMDF, the peptide exchange yield lay within 50 to 75%.

The molecule EEEDRDGHTW registered a peptide exchange yield of 50 to 75%.

With MEFQGPMPAGM, the peptide exchange yield was 50 to 75%.

VELMFPLLL showed a peptide exchange yield of 50 to 75%.

Take REDLVGPEV: the peptide exchange yield was 50 to 75%.

Take AELDHLASL: the peptide exchange yield fell in the range of 50 to 75%.

Consider YEMAIYKKY, for which the peptide exchange yield is > 75%.

VESSQAFTW displayed a peptide exchange yield of 50 to 75%.

Molecule IEVSSPITLQAL yielded a peptide exchange yield of 20 to 50%.

Molecule VEDDNYKLSL had a peptide exchange yield of 50 to 75%.

Molecule EEFIGKIGI returned a peptide exchange yield of 20 to 50%.

Turning to SEQNIQRANLF, the peptide exchange yield lay in the range of 50 to 75%.

The molecule KESMLKTTL showed a peptide exchange yield of 50 to 75%.

As to AEALVDGKWQEF, the peptide exchange yield lay within 50 to 75%.

In turn, QEWDPQKTEKY registered a peptide exchange yield of 50 to 75%.

In the case of AEQLRGFNA, the peptide exchange yield is 50 to 75%.

Molecule QEFPAHSL returned a peptide exchange yield of 50 to 75%.

In the case of MELQVSSGF, the peptide exchange yield fell in the range of 50 to 75%.

Turning to DEDYTYLIL, the peptide exchange yield is 20 to 50%.

For QELLDIANYL, the peptide exchange yield is > 75%.

The molecule HEHGLFNLY had a peptide exchange yield of 50 to 75%.

In turn, GETCVRITY had a peptide exchange yield of 50 to 75%.

SEKEPGQQY yielded a peptide exchange yield of 20 to 50%.

The molecule QEIGQKTSV gave a peptide exchange yield of 50 to 75%.

AEDLEKKYA: the peptide exchange yield was in the range of 20 to 50%.

For the molecule TEEPQRLFY, the peptide exchange yield lay in the range of 10 to 20%.

Consider QEDKATQTL, for which the peptide exchange yield is > 75%.

Turning to RLLPGKVVW, the peptide exchange yield was 20 to 50%.

Molecule SESLPRAPL yielded a peptide exchange yield of 50 to 75%.

AEALVDGKW: the peptide exchange yield lay within 50 to 75%.

The molecule DESADSEPHKY gave a peptide exchange yield of 10 to 20%.

In the case of SEDLAVHL, the peptide exchange yield was > 75%.

EESSSPVDEY registered a peptide exchange yield of 20 to 50%.

For EDLAVHLY, the peptide exchange yield was in the range of 10 to 20%.

In the case of QEILHGAVRF, the peptide exchange yield was 50 to 75%.

For the molecule KQWEYNEKLAF, the peptide exchange yield was 10 to 20%.

Molecule ALTEDSIDDTF came in with a peptide exchange yield of 10 to 20%.

Turning to IEVSSPITL, the peptide exchange yield was > 75%.

On to VELEVPQL, for which the peptide exchange yield is 20 to 50%.

Molecule YEIRAEAL showed a peptide exchange yield of 20 to 50%.

Turning to AEDNMVTSY, the peptide exchange yield was in the range of 50 to 75%.

LEYEAPKLY yielded a peptide exchange yield of 20 to 50%.
